The record followed here is US9803013B2, “Biological materials and uses thereof” (BioInvent International AB, priority 2005, dated 2017).

For data set [1], the system named is endothelial cells (HUVEC, HMVEC). As to the kind of experiment: HUVEC and HMVEC apoptosis assay. Format: cell-based. Conditions: resting or IFN-γ activated HUVEC/HMVEC, antibody cross-linked or not. On the procedure: (FIG. 23G) Antibody-induced endothelial cell apoptosis. HUVEC or HMVEC endothelial cells were incubated with paclitaxel (positive control), BI-505 or isotype control IgG in the presence or absence of cross-linking mAb. Apoptosis was measured by flow-cytometry following staining of cells with Annexin V-AF488.
Based on BI-505's documented ability to confer Fc:FcγR-dependent antitumor activity in malignant B cells, and a proposed general negative role for complement activation with regard to antibody tolerability (Lim et al.; van der Kolk et al., 2001), direct cytotoxic effects (PCD, ADCC, and CDC) of BI-505 in ICAM-1-expressing human peripheral blood B cells and endothelial cells were examined.
HUVEC (Cascade Biologics, pool of donors) and HMVEC (Cascade Biologics) were plated in 6-well plates (80 000-120 000 cells/well) in the presence or absence of 200 U/mL IFNγ, in order to induce ICAM-1 expression. Media was changed the day before apoptosis-induction experiments were performed and titrated concentrations of BI-505, enlimomab or isotype control antibody were added to the cells, in the presence or absence of cross-linking Fab (ab′)2 (same as the B-cell protocol). […] Necrotic cells were identified by increased fluorescence in the FL-4 channel and apoptotic cells by increased signal in the FL-1 channel on a flow cytometer (FACSCalibur, BD Bioscience).

The test system of data set [2] is primary patient MM cells. As to the kind of experiment: SCID-hu mouse model of multiple myeloma. The data set is classed as in vivo. On the procedure:
Bone marrow cells (>20% plasma cells) from myeloma patients (two patients in experiment 1 [top panel] and two different patients in experiment 2 [lower panel]) were injected into transplanted human fetal bones of SCID-hu mice. Four weeks after myeloma cell inoculation mice were divided into four groups to yield similar mean hIgG levels between groups, each group comprising mice grafted with MM cells from the different patient donors used in the experiment, and twice weekly treatment with 2 mg/kg BI-505, 1 mg/kg bortezomib or 2 mg/kg control human IgG was started (arrow). […] Graphs show mean hIgG concentrations.
Primary human MM cells depend on interactions with bone marrow stromal cells to proliferate and survive. The SCID-hu mouse harbors a human microenvironment where primary patient MM cells proliferate and induce pathology similar to human clinical MM (Yaccoby et al., 1998). MM cell derived human IgG titers were detected (>10 μg/ml) in the serum of SCID-hu mice four weeks after implantation of human MM cells to transplanted human bones, at which time treatment with antibodies (2 mg/kg) or bortezomib (1 mg/kg) began. Human IgG titers increased steadily in control treated SCID-hu mice over the course of experimentation to reach maximal concentrations of 40±5 μg/ml just before sacrifice (FIG. 18B and FIG. 19). […] Two independent experiments were performed with similar results (FIG. 18B and FIG. 19), each with MM cells from two different patient donors (n=4).
Human fetal femurs and tibias, obtained at 17 to 22 gestational weeks, were cut into fragments and implanted subcutaneously in SCID mice (SCID-hu) at age 6 to 8 weeks. Each animal was implanted with one bone fragment. Four weeks after bone implantation, 2 to 14×10^6 bone marrow cells from each patient (two patients per experiment for a total of four patients in two independent experiments, n=4), containing>20% plasma cells were injected directly into the human bone of 6 to 8 SCID-hu mice in a final volume of 30 to 40 μl of phosphate-buffered saline (PBS). One group of mice was implanted with bone only and served as “healthy” bone control. Mouse sera were serially monitored for human immunoglobulin (hIg) and the isotype levels were used as an indicator of myeloma cell growth by elisa. When hIg level reached 10 μg/mL or higher in 2 consecutive measurements after 4 weeks of injection of the tumor cells, the mice were divided into four groups to yield similar mean hIgG levels between groups, each group comprising mice grafted with MM cells from the different patient donors used in each experiment. The four treatment groups were: healthy control group (no myeloma cells injected and no drug treatment), isotype control group (myeloma cells injected and treated with isotype control IgG, 2 mg/kg, i.p., twice weekly), BI505 group (myeloma cells injected and treated with BI505, 2 mg/kg, i.p., twice weekly) and bortezomib group (myeloma cells injected and treated with 1 mg/kg, i.p., twice weekly). In some graphs hIgG levels were normalized to pretreatment (4 weeks) levels and the percent increase or decrease in hIgG levels as a function of treatment and time was analyzed. Normalized data from animals receiving the same treatment (control IgG, BI-505 or bortezomib) but grafted with MM cells from each of the four different patient donors in the two experiments were pooled and statistical difference was assessed by grouped 2-way ANOVA test and Bonferroni's posttest using GraphPad Prism 5 software. Patient myeloma cells were taken after informed consent and with the approval of the local ethics committee. For x-radiography evaluation and quantification of bone mineral density (BMD) mice in the four groups were sacrificed and the implanted human bones were taken out and fixed in 10% formalin solution. Radiographs were taken with an AXR Minishot-100 beryllium source instrument (Associated X-Ray Imaging Corp., Haverhill, Mass., USA) and 100 s exposure at 30 kV. […]

Data set [3] relates to RPMI-8226 cells. As to the kind of experiment: Macrophage ADCP. Format: cell-based. The conditions noted are these: RPMI-8226, human macrophages. The procedure:
(§1) Cultured macrophages were detached and plated in flat 96-well plates at 50 000 cells/well and placed in 37° C. CFSE-stained target cells were incubated with antibodies for up to 1 hr on ice. After washing, the different cell solutions were added to the culture plates containing macrophages at a ratio of 5:1 (Target cells:Macrophages). Thereafter, the culture plates were incubated at 37° C. for 1-2 hr (primary patient MM cells) or 16 hr (RPMI-8226 cells). The percentage of macrophages that had phagocytosed tumor cells (CFSE^+, CD206^+) per total analyzed macrophages was determined following gating and acquisition of 5000 CD206^+ cells/sample.
(§2) Buffy coats from healthy human donors were ordered through the local blood central at Lund University Hospital and Halmstad Hospital. Peripheral blood mononuclear cells (PBMCs) were first extracted using Ficoll-Paque PLUS (GE Healthcare Life Sciences), followed by isolation of monocytes with CD14 MicroBeads and MACS separation (Miltenyi Biotec). The monocytes were cultured in RPMI 1640 medium with 10% heat-inactivated FBS (Invitrogen) and 25 ng/mL of recombinant human M-CSF (R&D Systems) for 6-14 days, causing differentiation into macrophages. Medium with M-CSF was changed every 2-3 days upon initiation of cultures.
(§3) RPMI-8226 cells (ATCC) were continuously cultured in RPMI 1640 medium supplemented with 10 mM HEPES, 1 mM sodium pyruvate and 10% FBS. For multiple myeloma cells, freshly isolated bone marrow samples were donated by patients at Lund University Hospital and subsequently processed with Ficoll-Paque PLUS. Negative isolation of malignant plasma cells was then performed using the Plasma Cell Isolation Kit II according to the manufacturer's instructions (Miltenyi Biotec).
(§4) At least 4 h before co-culture with target cells the cultured macrophages were detached with Accutase (Sigma Aldrich), before plated in flat 96-well plates at 50 000 cells/well and placed in 37° C. […] After washing, the different cell solutions were added to the culture plates containing macrophages at a ratio of 5:1 (Target cells:Macrophages). Thereafter, the culture plates were incubated at 37° C. for 1-2 hr (primary patient MM cells) or 16 hr (RPMI-8226 cells). Next, samples were stained with APC-conjugated anti-CD206 antibody (BD Biosciences), before harvested by scraping the culture plate wells. The resulting cell solutions were then analyzed by flow cytometry, where CD206^+ macrophages were gated and acquired at 5000 cells/sample. A cut-off level identifying CFSE^+, CD206^+ double positive (phagocytic) macrophages was set for each experimental sample series. This level differed between the individual assays since the magnitude of basic (unstimulated) phagocytosis varied (different donors and time-points) among the experiments.

For data set [4], the system named is primary patient's MM cells. As to the kind of experiment: Macrophage ADCP. The conditions noted are these: human macrophages. Format: cell-based. The procedure: as §1, §2, §3, §4
The target of data set [5] is T1, mouse FcγRIV (Mus musculus, UniProt A0A0B4J1G0).
T1 construct: made in house; host or cells: HEK293E cells (transient)
T1 sequence (A0A0B4J1G0 21-249): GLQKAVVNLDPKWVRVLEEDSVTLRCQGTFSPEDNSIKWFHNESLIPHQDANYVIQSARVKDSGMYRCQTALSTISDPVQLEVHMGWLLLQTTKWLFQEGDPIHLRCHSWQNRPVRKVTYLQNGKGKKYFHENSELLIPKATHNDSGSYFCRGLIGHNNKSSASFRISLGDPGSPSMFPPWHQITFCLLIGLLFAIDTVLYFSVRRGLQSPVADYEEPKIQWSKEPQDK
As to the kind of experiment: BiaCore analysis of BI-505 Fc-variant binding to FcγR. On the procedure: (FIG. 20B) BiaCore analysis of BI-505 Fc-variant antibodies binding to mouse FcγRIV.
(§5) His-tagged human FcγRIIIa and mouse FcγRIV were transiently expressed in HEK293E cells, purified using Ni-NTA chromatography, and characterized by SDS-PAGE and/or Biacore. Surface plasmon resonance (SPR) measurements were performed using a Biacore 3000 instrument. Goat F(ab)′2 α-human-F(ab)′2 fragments (Jackson Laboratories) were immobilized with a CM-5 chip using a standard amine coupling protocol. BI-505 (IgG1) and IgG4 or IgG1 297Q variants of BI-505 were diluted to 15 and 60 μg/mL respectively and added to the surface at 10 μL/min for 3 min. His-tagged human FcγRIIIa or mouse FcγRIV was pre-incubated with an α-HIS antibody (R&D Systems) at a 2:1 molar ratio before addition to the chip surface, 30 μL/min, for 1 min. After each cycle the surface was regenerated twice with glycine buffer pH 1.7.
On the technique in general: Surface plasmon resonance follows binding to a sensor surface in real time, without labels.

The target of data set [6] is T2, human FcγRIIIa (Homo sapiens, UniProt P08637).
T2 construct: made in house; host or cells: HEK293E cells (transient)
The data set is described as above. The procedure: (FIG. 20C) BiaCore analysis of BI-505 Fc-variant antibodies binding to human FcγRIIIa.
as §5

Data set [7] concerns ARH-77 tumors. As to the kind of experiment: SCID/ARH-77 subcutaneous xenograft model. The conditions noted are these: established ARH-77 tumors.
Description: For subcutaneous grafting, 1-5×10^6 tumor cells (RPMI-8226, NCI-H929, EJM, OPM-2, ARH-77, or Daudi) were subcutaneously injected at a volume of 100 μl into the left flank of anesthetized mice as described in the Supplemental Information. […] Treatment with saline, isotype control IgG, bortezomib, lenalidomide, dexamethasone, or BI-505 started on day 5 (RPMI-8226). Treatment with melphalan started on day 10. BI-505 or isotype IgG mAb was administered i.v. at 2 mg/kg/inj twice weekly for 8 weeks; bortezomib at 1 mg/kg/inj once weekly for 8 weeks; lenalidomide orally at 2 mg/kg/inj for 2 cycles consisting of 5 days of treatment and 2 days of wash out; melphalan i.v. at 3 mg/kg/inj once weekly for 8 weeks; and dexamethasone at 6 mg/kg/inj three times weekly for 2 weeks.
Mice were anaesthetized with a mixture of sevofluran and oxygen prior to myeloma cell inoculation and 1-10×10^6 myeloma cells were then subcutaneously injected in a volume of 100 μl into the left flank. Treatment with antibodies by intraperitoneal injection started either 1 day after cell inoculation (prophylactic model) or when tumors reached approximately 100 mm^3 (established model). Antibodies were administered in 200 μL of PBS. Treatment with PBS only or isotype IgG were used as controls. Macrophages or NK-cells were depleted by i.p. administration of 0.1 ml clodronate liposomes (Clophosome-A, FormuMax, Scientific Inc. Palo Alto, USA) or 20 μl anti-asialo GM1 pCI Ab (CL8955, Cedarlane Laboratories Limited, Canada) respectively, starting one day prior to antibody treatment, followed by administration twice weekly for a total of three weeks, PBS was used as control.
Tumor size was measured using a digital calliper and tumor volumes were calculated according to the formula width^2×length×0.52, as previously described (Cao et al., 1999).
Statistical analyses of tumor growth inhibition relative to control antibody treatment were carried out using Kruskal-Wallis nonparametric ANOVA with Dunn's multiple comparisons test or Mann-Whitney non-parametric analysis, as indicated in the figure legends.
For data set [8] the following is noted: mouse, 2 mg/kg.
Description: Blood samples collected from the vena cava were centrifuged at 2500 g for 15 min to obtain serum and the samples were stored at −20° C.
Sera were prepared from blood samples collected from the vena saphena from 3 animals in each group at different time-points during the course of in vivo experimentation. Briefly, ELISA plates were coated over night with human ICAM-1 protein. The following day, plates were incubated with the serum samples. Biotinylated goat-anti-BI-505 was used for detection of BI-505 in the serum samples. Sera were analysed by ELISA to determine BI-505 trough levels. Trough BI-505 serum concentrations were then plotted as a function of dose and were fitted using five parameter log-log curve and XLfit software (IDBS, Guildford, United Kingdom).

T2 sequence (P08637 17-254): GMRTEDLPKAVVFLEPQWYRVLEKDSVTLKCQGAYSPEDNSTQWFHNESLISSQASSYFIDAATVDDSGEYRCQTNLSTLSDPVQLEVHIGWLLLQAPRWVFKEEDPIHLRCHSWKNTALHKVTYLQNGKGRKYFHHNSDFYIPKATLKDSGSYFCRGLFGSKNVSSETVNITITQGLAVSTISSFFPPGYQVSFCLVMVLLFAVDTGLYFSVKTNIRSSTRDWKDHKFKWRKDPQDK

Consider `CC(=O)O[C@H]1C(=O)[C@@]2(C)[C@H]([C@H](OC(=O)c3ccccc3)[C@]3(O)C[C@H](OC(=O)[C@H](O)[C@@H](NC(=O)c4ccccc4)c4ccccc4)C(C)=C1C3(C)C)[C@]1(OC(C)=O)CO[C@@H]1C[C@@H]2O` [paclitaxel, reference compound], for which the “cell death in normal cells” value in data set [1] is “induced significant PCD”.

On to `CC(C)C[C@H](NC(=O)[C@H](Cc1ccccc1)NC(=O)c1cnccn1)B(O)O` [bortezomib, reference compound], for which, in data set [2] (TRAP staining, compared to control-treated mice), the “bone osteoclasts” value was “reduced numbers of bone osteoclasts”. In addition, the “serum human IgG levels” value in data set [2] (antibody 2 mg/kg or bortezomib 1 mg/kg twice weekly) is given as “halted or reduced serum human IgG levels to below pre-treatment levels”.

B1: BI-505 IgG1 N297Q: BI-505 variant with abolished FcγR-binding (antibody, V domains shown)
VH: EVQLLESGGGLVQPGGSLRLSCAASGFTFSNAWMSWVRQAPGKGLEWVAFIWYDGSNKYYADSVKGRFTISRDNSKNTLYLQMNSLRAEDTAVYYCARYSGWYFDYWGQGTLVTVSS
VL: QSVLTQPPSASGTPGQRVTISCTGSSSNIGAGYDVHWYQQLPGTAPKLLIYDNNNRPSGVPDRFSGSKSGTSASLAISGLRSEDEADYYCQSYDSSLSAWLFGGGTKLTVLG
B1: the “ADCP” value in data set [3] and in data set [4] was “did not confer ADCP” throughout. The “binding to mouse FcγRIV, order” value in data set [5] is “IgG1 N297Q<IgG4<IgG1”. Further, the “binding to human FcγR” value in data set [6] was “did not bind to human FcγR”. In addition, the “in vivo antitumor activity of Fc-variants, order” value in data set [7] is “IgG1 N297Q<IgG4<IgG1”. The “In vivo serum concentrations” value in data set [8] was 9.6 ± 3 µg/mL.

B2: BI-505 IgG4: BI-505 variant with reduced FcγR-binding compared to wildtype BI-505 IgG1 (antibody, V domains shown)
VH: EVQLLESGGGLVQPGGSLRLSCAASGFTFSNAWMSWVRQAPGKGLEWVAFIWYDGSNKYYADSVKGRFTISRDNSKNTLYLQMNSLRAEDTAVYYCARYSGWYFDYWGQGTLVTVSS
VL: QSVLTQPPSASGTPGQRVTISCTGSSSNIGAGYDVHWYQQLPGTAPKLLIYDNNNRPSGVPDRFSGSKSGTSASLAISGLRSEDEADYYCQSYDSSLSAWLFGGGTKLTVLG
For B2, the “binding to mouse FcγRIV, order” value in data set [5] is “IgG1 N297Q<IgG4<IgG1”. Besides, the “in vivo antitumor activity of Fc-variants, order” value in data set [7] was “IgG1 N297Q<IgG4<IgG1”. Further, the “In vivo serum concentrations” value in data set [8] is 13 ± 3.1 µg/mL.
